{"source": "paper PMC3176149", "about": "“Application of Celluspots peptide arrays for the analysis of the binding specificity of epigenetic reading domains to modified histone tails” (BMC Biochemistry, 2011)", "target": "FITC-coupled H3K9me3-S10ph peptide (amino acids 1-19) (UniProt P68431)", "test": "fluorescence polarisation; fluorescence depolarization in solution, purified FITC-coupled H3 1-19 peptides, Varian Carry Eclipse spectrophotometer, as described [40]; fit to a binary binding equilibrium", "note": "pKd: −log10 of the molar value."}
{"substance": "MPP8 Chromo domain (M-phase phosphoprotein 8), GST fusion (from UniProt Q99549 58-112) (domain or fragment)", "values": [{"measurement": "pKd", "value": "< 4.30"}]}
